Patent US20050020519A1, “Modulation of insulin-regulated aminopeptidase (irap)/angiotensin iv (at4) receptor activity” (priority 2001, published 2005)
Entries after “also recorded” stand apart in the source; their conditions may differ. Like-named read-outs stand apart in the source and are kept apart here. Where no end group is shown, it is not given here. [ ]: non-standard residue; d: D form. Cyt = cystine residue, as named in the source; pGlu = O=C1CC[C@@H](C(=O)O)N1

T1: AT4 receptor (Bos taurus, UniProt F1N1Q8)
T1 construct: from tissue; host or cells: bovine adrenal gland membranes
T1 sequence (F1N1Q8 1-1022): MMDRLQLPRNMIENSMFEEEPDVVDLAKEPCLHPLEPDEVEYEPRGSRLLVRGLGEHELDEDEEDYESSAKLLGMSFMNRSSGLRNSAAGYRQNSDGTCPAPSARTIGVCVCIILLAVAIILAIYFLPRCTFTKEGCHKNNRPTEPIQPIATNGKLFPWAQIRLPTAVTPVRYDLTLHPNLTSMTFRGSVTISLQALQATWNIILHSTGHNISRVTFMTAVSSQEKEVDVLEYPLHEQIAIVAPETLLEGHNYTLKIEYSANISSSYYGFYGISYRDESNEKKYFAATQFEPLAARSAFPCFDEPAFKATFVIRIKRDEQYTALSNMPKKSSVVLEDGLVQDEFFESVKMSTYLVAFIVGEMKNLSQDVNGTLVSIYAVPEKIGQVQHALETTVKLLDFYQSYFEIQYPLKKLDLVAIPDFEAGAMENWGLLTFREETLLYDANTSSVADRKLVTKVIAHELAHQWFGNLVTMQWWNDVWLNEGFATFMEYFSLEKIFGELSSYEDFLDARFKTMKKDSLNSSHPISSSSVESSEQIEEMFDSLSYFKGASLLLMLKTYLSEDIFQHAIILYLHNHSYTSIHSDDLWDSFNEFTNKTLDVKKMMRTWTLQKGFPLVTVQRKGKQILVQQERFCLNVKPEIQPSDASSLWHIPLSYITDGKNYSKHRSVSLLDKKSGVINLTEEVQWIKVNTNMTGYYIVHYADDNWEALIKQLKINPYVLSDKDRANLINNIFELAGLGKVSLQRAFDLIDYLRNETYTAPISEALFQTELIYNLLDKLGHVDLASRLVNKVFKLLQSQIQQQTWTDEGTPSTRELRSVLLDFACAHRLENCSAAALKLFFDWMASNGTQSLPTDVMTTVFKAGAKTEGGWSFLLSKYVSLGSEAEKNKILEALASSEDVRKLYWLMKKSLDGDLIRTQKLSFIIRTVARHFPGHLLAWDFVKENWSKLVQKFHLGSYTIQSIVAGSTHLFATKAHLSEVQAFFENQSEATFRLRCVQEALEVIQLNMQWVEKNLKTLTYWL


Legend:
3T3L1 cells = assay: 2-deoxyglucose uptake in differentiated 3T3L1 adipocytes
Protocol: The effect of IRAP inhibitors on the regulation of glucose uptake was determined in 3T3L1 cells. 3T3L1 fibroblasts were differentiated by the addition of DMEM containing 5% fetal calf serum, 4 μg/ml insulin, 0.25 mM dexamethasone and 0.5 mM 3-isobutyl-1-methyl-xanthine. […] The reaction was stopped after 10 min by washing the cells in PBS. The cells were then solubilized in 0.5 N NaOH and counted.

[1] = molecular target: human insulin-regulated aminopeptidase (IRAP) / angiotensin IV (AT4) receptor (human) (UniProt Q9UIQ6); assay: cell-based or functional assay
IRAP (AT4 receptor) = molecular target: T2, IRAP (AT4 receptor) (Homo sapiens, UniProt Q9UIQ6); assay: ^125I-Nle^1 Ang IV binding to membranes of HEK 293 cells transfected with IRAP cDNA
T2 construct: expressed in transfected cells; host or cells: HEK 293 cells (membranes)
Source text: The amount of radioligand bound to the membranes from HEK 293 cells transfected with IRAP cDNA was expressed as a percentage of radioligand bound to membranes from HEK 293 cells transfected with control plasmids.

IRAP [2] = molecular target: T3, IRAP (Homo sapiens, UniProt Q9UIQ6); assay: Degradation of peptides by IRAP expressed in HEK 293T cells, HPLC with mass spectrometric detection; type: biochemical; settings: for Substrate disappearance over 4 hr: 37° C., hIRAP transfected HEK 293T membranes, (=UT) equals untransfected control cells; for Products Identified: incubation at 37° C. with solubilized membrane protein from hIRAP transfected HEK 293T cells; for cleavage by IRAP: up to 6 hr
T3 construct: expressed in transfected cells; host or cells: HEK 293T cells (solubilised membrane protein)
Protocol: At each time point (0, 0.5, 1, 2, 4 & 6 hr), an aliquot containing 5 μg peptide was removed, and the reaction stopped by addition of 4 volumes methanol/1% trifluoroacetic acid (TPA). Samples were dried on a centrifugal vacuum evaporator prior to HPLC analysis with on-line mass spectrometric detector. […] Fragments were identified following mass spectral analysis, using Agilent ChemStation deconvolution software.

rats = settings: rat, in vivo, iv; cited from earlier work
IRAP [3] = molecular target: T3, IRAP; assay: IRAP enzymatic activity, hydrolysis of L-leucine-β-naphthylamide (fluorescence); type: biochemical
Source text: For example, Hek293 cells stably transfected with a eukaryotic expression vector expressing the AT4 receptor gene may be utilized. An example of this is the vector pcDNA-3 containing the cDNA encoding the full length AT4 receptor. Two assay systems are used, one for each spliced variant of the human AT4 receptor gene. The assay system involves the measurement of the rate of hydrolysis of L-leucyl β-naphthylamide by the AT4 receptor. The rate of hydrolysis by the transfected cells is followed by recording the increase in fluorescence (excitation at 340 nm, emission at 410 nm) using a purpose-designed fluorimeter. Test compounds are added to the assay system, and their effects on the hydrolysis of L-leucyl β-naphthylamide are a direct indicator of their modulation of AT4 receptor activity.
Crude membranes were prepared from HEK 293 cells stably transfected with pcDNA-3 containing the cDNA encoding the full length AT4 receptor/IRAP, using the same method as that described for bovine adrenal membranes. The membranes were solubilised in 50 mM Tris-HCl containing 1% Triton-X100 at 4° C. for 16 h. The IRAP enzymatic activity was determined by the hydrolysis of a synthetic substrate, L-leucine-β-naphthylamide, and monitored by the release of a fluorogenic product on a spectrophotometer set at excitation 340 nm and emission 410 nm. One hundred μM of the substrate was added to 10 μg of solubilised membranes, and the increase in fluorescence monitored for 10 min.
Samples were assayed 2-3 times in triplicate, except controls, which were performed 5 times in triplicate.

AT4 receptor = molecular target: T1, AT4 receptor; assay: AT4 radioreceptor assay, ^125I-Ang IV binding to bovine adrenal membranes
Protocol: The AT4 radioreceptor assay was used to screen the sheep brain extracts for AT4 receptor modulatory activity. The membranes were prepared using bovine adrenal glands obtained from the abattoir. The adrenals were diced, homogenized in ice-cold hypotonic buffer (50 mM Tris, 5 mM EDTA, pH 7.4) and centrifuged for 10 min at 500 g. […] The resulting pellets were re-homogenized in hypotonic buffer. […] The samples were incubated for 2 h at 37° C., and the bound ligand was separated on Whatman GF/B glass fibre filters.

[4] = molecular target: human insulin-regulated aminopeptidase (IRAP) / angiotensin IV (AT4) receptor (human) (UniProt Q9UIQ6); assay: radioligand binding, HEK 293 and CHO cells transfected with IRAP cDNA
[5] = molecular target: human insulin-regulated aminopeptidase (IRAP) / angiotensin IV (AT4) receptor (human) (UniProt Q9UIQ6); assay: radioligand displacement of 125I-Nle-Ang IV
[6] = molecular target: human insulin-regulated aminopeptidase (IRAP) / angiotensin IV (AT4) receptor (human) (UniProt Q9UIQ6); assay: competitive inhibition of L-leucine-β-naphthylamide cleavage by solubilised membranes of IRAP-transfected HEK 293 cells; Ki from IC50=Ki(1+[S]/Km)
[7] = molecular target: T4, human insulin-regulated aminopeptidase (IRAP) / angiotensin IV (AT4) receptor (human, UniProt Q9UIQ6 1-1025); assay: competition with 125I-Nle1 Ang IV on IRAP-transfected cells
T4 construct: whole, on cells; also called AT4 receptor/IRAP; hIRAP

[8] = molecular target: human insulin-regulated aminopeptidase (IRAP) / angiotensin IV (AT4) receptor (human) (UniProt Q9UIQ6); assay: cell-based or functional assay; remark: listed apart in the source

Sequence of human insulin-regulated aminopeptidase (IRAP) / angiotensin IV (AT4) receptor (human) (Q9UIQ6 whole entry): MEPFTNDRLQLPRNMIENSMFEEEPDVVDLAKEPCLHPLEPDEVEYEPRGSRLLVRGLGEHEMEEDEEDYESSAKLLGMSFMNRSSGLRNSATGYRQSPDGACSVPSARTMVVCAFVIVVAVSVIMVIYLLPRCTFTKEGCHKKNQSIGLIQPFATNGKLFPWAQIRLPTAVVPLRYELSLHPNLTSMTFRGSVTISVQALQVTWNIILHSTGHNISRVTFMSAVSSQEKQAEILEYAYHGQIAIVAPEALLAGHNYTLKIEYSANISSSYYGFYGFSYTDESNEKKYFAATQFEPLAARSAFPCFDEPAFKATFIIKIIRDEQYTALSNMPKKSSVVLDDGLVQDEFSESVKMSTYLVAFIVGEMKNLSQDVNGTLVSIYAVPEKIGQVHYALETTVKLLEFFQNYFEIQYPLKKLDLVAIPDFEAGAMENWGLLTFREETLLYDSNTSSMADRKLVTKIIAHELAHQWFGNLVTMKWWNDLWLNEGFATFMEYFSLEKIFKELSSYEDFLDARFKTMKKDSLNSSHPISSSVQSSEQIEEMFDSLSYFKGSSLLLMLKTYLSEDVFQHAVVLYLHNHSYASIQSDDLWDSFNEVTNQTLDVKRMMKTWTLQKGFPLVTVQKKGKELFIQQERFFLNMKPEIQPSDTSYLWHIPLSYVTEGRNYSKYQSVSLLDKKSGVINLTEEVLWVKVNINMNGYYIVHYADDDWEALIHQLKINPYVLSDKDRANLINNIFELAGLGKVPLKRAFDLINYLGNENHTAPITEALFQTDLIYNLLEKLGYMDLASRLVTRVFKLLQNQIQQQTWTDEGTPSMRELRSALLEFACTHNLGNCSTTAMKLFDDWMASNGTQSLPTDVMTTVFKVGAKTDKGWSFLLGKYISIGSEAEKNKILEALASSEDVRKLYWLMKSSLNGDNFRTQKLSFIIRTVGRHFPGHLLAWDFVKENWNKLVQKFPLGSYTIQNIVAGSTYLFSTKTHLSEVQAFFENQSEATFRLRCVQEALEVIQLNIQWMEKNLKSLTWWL
T3 sequence (Q9UIQ6 whole entry): as above
T2 sequence (Q9UIQ6 whole entry): as above
T4 sequence (Q9UIQ6 whole entry): as above

Molecule	Substrate disappearance over 4 hr (IRAP [2])	Products Identified (IRAP [2])	cleavage by IRAP (IRAP [2])	also measured
insulin	–	–	–	glucose uptake under insulin stimulation (3T3L1 cells; 0.7 nM insulin): 13.5±2.6 pmol/min/well; glucose uptake under insulin stimulation (3T3L1 cells; 70 nM insulin): 19.7±1.18 pmol/min/well
Angiotensin III (from UniProt P01019 26-32) (peptide)	–	–	–	Substrate disappearance over 4 hr [1]: 7%
α-neo-Endorphin (from UniProt P01213 175-184) (peptide)	–	–	–	Substrate disappearance over 4 hr [1]: 9%
CC(C)[C@H](N)CN[C@@H](Cc1ccc(O)cc1)C(=O)N[C@H](CN[C@@H](Cc1c[nH]cn1)C(=O)N1CCC[C@H]1C(=O)N[C@@H](Cc1ccccc1)C(=O)O)C(C)C [Divalinal - Ang IV]	None	None	no cleavage	IC50 (IRAP (AT4 receptor)): 845 nM; effect on the swim maze enhancement by Nle-angiotensin IV (rats): blocked; IC50 (IRAP [3]): 4000 nM; Ki (IRAP [3]): 2250 nM; type of inhibition of IRAP (IRAP [3]; Lineweaver-Burk analysis): competitive inhibition
GnRH: peptide tested as potential IRAP substrate	None	None	No cleavage	–
Ang I: angiotensin peptide (DRVYIHPFHL)	None	None	no cleavage	–
arginine-vasopressin (from UniProt P01185 20-28) (peptide)	–	–	–	IC50 of inhibition of L-leucine-β-naphthylamide cleavage [1]: > 40000 nM
angiotensin III [Ang III]	7% (=UT)	RVYIHP	–	–
CC(C)C[C@H](NC(=O)[C@@H](O)[C@H](N)Cc1ccccc1)C(=O)O [bestatin]	–	–	–	inhibition at 10 µM (IRAP [3]; 10 μM bestatin): 60%
Met-enkephalin	65%	GGFM	most rapidly cleaved	–
NC(=O)CC[C@@H]1NC(=O)[C@H](Cc2ccccc2)NC(=O)[C@H](Cc2ccc(O)cc2)NC(=O)[C@@H](N)CSSC[C@@H](C(=O)N2CCC[C@H]2C(=O)N[C@@H](CCCN=C(N)N)C(=O)NCC(N)=O)NC(=O)[C@H](CC(N)=O)NC1=O [AVP, arginine-vasopressin]	58%	YFQNCytPRG-NH2; also recorded: FQNCytPRG-NH2	most rapidly cleaved	IC50 (IRAP [3]): > 40000 nM
[pGlu^4Cyt^6]AVP(4-9) ([pGlu]N[Cyt]PRG; ends and bridges not checked; also: Cyt6: cystine at position 6, partner not given here) [pGlu^4Cyt^6AVP]	None	None	No cleavage	–
CC[C@H](C)[C@@H]1NC(=O)[C@H](Cc2ccc(O)cc2)NC(=O)[C@@H](N)CSSC[C@@H](C(=O)N2CCC[C@H]2C(=O)N[C@@H](CC(C)C)C(=O)NCC(N)=O)NC(=O)[C@H](CC(N)=O)NC(=O)[C@H](CCC(N)=O)NC1=O [OXY, oxytocin]	37%	YIQNCytPLG-NH2	most rapidly cleaved	–
sar^1Ile^8-Ang II	None	None	–	–
α-neo-Endorphin (YGGFLRKYPK) [opioid peptide, 10 residues]	9%	GGFLRKYPK,; also recorded: GFLRKYPK, FLRKYPK	at least three N-terminal residues were cleaved	–
divalinal-Ang IV (peptide)	–	–	–	IC50 inhibition leucine β-naphthylamide [1]: 4000 nM
oxytocin (from UniProt P01178 20-28) (peptide)	–	–	–	Substrate disappearance over 4 hr [1]: 37%
CC(C)C[C@@H](N)[C@H](O)C(=O)N[C@H](C(=O)N[C@H](C(=O)N[C@@H](CC(=O)O)C(=O)O)C(C)C)C(C)C [amastatin]	–	–	–	inhibition at 100 µM (IRAP [3]; 100 μM amastatin): 25%
VYPWT	–	–	–	AT4 receptor/IRAP binding activity of fragment (AT4 receptor; structure-activity study on LVVYPWTQRF): retained full AT4 receptor/IRAP binding activity
α-Endorphin (YGGFMTSEKSQTPLVT) [16 residues, first five identical to met-enkephalin]	None	None	not cleaved at all	–
acetylated AVP [AcAVP]	None	None	No cleavage	–
Nle^1-Ang IV (Nle-YIHPF) (peptide)	–	–	–	fold increase in specific binding sites over control cells [4]: 10 to 20 fold; IC50 [5]: 3.32 nM; IC50 inhibition leucine β-naphthylamide [1]: 600 nM; Substrate disappearance over 4 hr [1]: 16%; Ki [6]: 340 nM
KYLPGPLQ	–	–	–	Ki (AT4 receptor; bovine adrenal membranes, synthetic peptides, read-out: affinity in competing for ^125I-Ang IV binding): 1 to 5 nM
angiotensin II (DRVYIHPF) [Ang II]	None	None	no cleavage	–
Neurotensin (from UniProt P30990 151-163) (peptide)	–	–	–	Substrate disappearance over 4 hr [1]: 22%
KYLPGPLQ (Purified from blood-free sheep cerebral cortex; synthetic peptide used in the assays; also called complexin fragment) [KYLPGPLQ (complexin II fragment)]	–	–	–	binding result [7]: binds
YGGFM (peptide, UniProt P01210 100-104, looked up) [Met-enkephalin]	–	–	–	Substrate disappearance over 4 hr [8]: 65%
